This passage reports reduction in HPRT expression in Hepa 1-6 cells (100 nM complex, 72 hours), reduction in HPRT expression in gastrocnemius of C57BL/6 mice (single i.v. dose, 2 mg/kg RNA, day 3) and reduction in HPRT expression in heart of C57BL/6 mice (single i.v. dose, 2 mg/kg RNA, day 3) results from patent US20230203180A1.

In this test the target is transferrin receptor (on Hepa 1-6 cells; in tissues of C57BL/6 wild-type mice) (mouse) (UniProt Q62351). Nature of the test: cell-based or functional assay.
Sequence of UniProt Q62351 (Q62351 whole entry): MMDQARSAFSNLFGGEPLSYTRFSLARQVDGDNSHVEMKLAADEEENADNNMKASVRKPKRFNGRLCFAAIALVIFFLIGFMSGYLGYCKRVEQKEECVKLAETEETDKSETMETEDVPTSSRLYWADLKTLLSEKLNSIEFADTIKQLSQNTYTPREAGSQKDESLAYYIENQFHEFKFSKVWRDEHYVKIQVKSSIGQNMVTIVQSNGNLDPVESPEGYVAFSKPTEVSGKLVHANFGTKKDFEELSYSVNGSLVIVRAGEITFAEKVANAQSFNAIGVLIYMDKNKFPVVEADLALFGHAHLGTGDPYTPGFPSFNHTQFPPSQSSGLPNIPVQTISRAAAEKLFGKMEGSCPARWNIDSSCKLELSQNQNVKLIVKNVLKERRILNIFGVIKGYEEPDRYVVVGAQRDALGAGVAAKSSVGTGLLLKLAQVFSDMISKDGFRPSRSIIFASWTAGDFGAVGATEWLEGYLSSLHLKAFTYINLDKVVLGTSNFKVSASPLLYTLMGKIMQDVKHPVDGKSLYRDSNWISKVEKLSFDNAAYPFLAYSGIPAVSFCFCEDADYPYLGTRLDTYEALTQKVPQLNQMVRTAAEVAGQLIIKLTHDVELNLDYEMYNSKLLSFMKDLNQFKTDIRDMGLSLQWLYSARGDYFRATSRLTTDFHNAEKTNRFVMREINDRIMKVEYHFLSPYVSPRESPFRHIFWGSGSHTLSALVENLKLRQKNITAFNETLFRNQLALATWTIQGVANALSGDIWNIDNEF

Turning to “antiTfR-siHPRT complex: RI7 217 anti-TfR1 Fab (DTX-A-002) covalently linked via a non-cleavable GMBS linker to HPRT siRNA (siHPRT)”, the reduction in HPRT expression in Hepa 1-6 cells (100 nM complex, 72 hours) worked out at 50%; the reduction in HPRT expression in gastrocnemius of C57BL/6 mice (single i.v. dose, 2 mg/kg RNA, day 3) worked out at 31%; the reduction in HPRT expression in heart of C57BL/6 mice (single i.v. dose, 2 mg/kg RNA, day 3) worked out at 30%.
